Twelve substances from patent publication US20120329711A1, “GLP-1 RECEPTOR AGONIST COMPOUNDS WITH A MODIFIED N-TERMINUS” (Nordisk A/S, priority 2009, published 2012) can be followed below.

Read-outs that look alike come from different tables or passages of the source.

Assay [1] has as its target T1, human GLP-1 receptor (Homo sapiens, UniProt P43220).
Assay [2] has as its target T1, human GLP-1 receptor. The source holds these as a separate data set.
For assay [3], the target named is Human Serum Albumin (human) (UniProt P02768). Put plainly: shift of the GLP-1 receptor IC50 (SPA displacement of ^125I-GLP-1) between 2.0% and 0.005% HSA, which the filing takes as an indication of albumin binding.
In assay [4] the target is T1, human GLP-1 receptor. In words: SPA displacement of [^125I]-GLP-1(7-36)NH2 from BHK membranes with the human GLP-1 receptor, 0.005% HSA (low albumin).
For assay [5], the target named is T1, human GLP-1 receptor. Put plainly: SPA displacement of [^125I]-GLP-1(7-36)NH2 from BHK membranes with the human GLP-1 receptor, 2.0% HSA (high albumin).

As a reminder, the IC50 is the concentration at which inhibition is half-maximal.

In the assay with human GLP-1 receptor [1], “N^3-{2-[2-(1H-Imidazol-4-yl)-methylcarbamoyl]-2-methyl-propionyl}-[2-(2-{2-[2-(2-{2-[(S)-4-Carboxy-4-(17-carboxyheptadecanoylamino)-butyrylamino]ethoxy}ethoxy)-acetylamino]ethoxy}-ethoxy)acetyl][Arg^17,Arg^20,Arg^33,Lys^38]GLP-1A(3-37)-peptide” displayed an EC50 of cAMP formation (AlphaScreen cAMP assay) of less than 0.0021 µM.

In the assay with human GLP-1 receptor [2], “N^9-(5-oxo-5-phenylpentanoyl), N^ε26-[2-[2-[2-[[2-[2-[2-[[(4S)-4-carboxy-4-(17-carboxyheptadecanoylamino)butanoyl]amino]ethoxy]ethoxy]acetyl]amino]ethoxy]ethoxy]acetyl]-[Arg^34]-GLP-1-(9-37)-peptide” yielded an EC50 of cAMP formation (AlphaScreen cAMP assay) of more than 0.008 µM. For the same substance, the ratio [(IC50/nM) high HSA]/[(IC50/nM) low HSA] in assay [3] was more than 300. Also, the IC50 in the assay with human GLP-1 receptor [4] is more than 0.04 µM.

Regarding “N^9-[2,2-dimethyl-3-oxo-3-(pyridin-2-ylmethylamino)propanoyl], N^ε26-[2-[2-[2-[[2-[2-[2-[[(4S)-4-carboxy-4-[10-(4-carboxyphenoxy)decanoylamino]butanoyl]amino]ethoxy]ethoxy]acetyl]amino]ethoxy]ethoxy]acetyl], N^ε37-[2-[2-[2-[[2-[2-[2-[[(4S)-4-carboxy-4-[10-(4-carboxyphenoxy)decanoylamino]butanoyl]amino]ethoxy]ethoxy]acetyl]amino]ethoxy]ethoxy]acetyl]-[Arg^34,Lys^3]-GLP-1-(9-37)-peptide”, the concentration for half-maximal inhibition (IC50) was less than 0.9 µM with human GLP-1 receptor [5] and less than 0.04 µM with human GLP-1 receptor [4]. This substance yielded an EC50 of cAMP formation (AlphaScreen cAMP assay) in the assay with human GLP-1 receptor [1] of less than 0.0021 µM. The ratio [(IC50/nM) high HSA]/[(IC50/nM) low HSA] in assay [3] is more than 10.

“N^9-[-{2-[2-(1H-Imidazol-4-yl)-ethylcarbamoyl]-2-methyl-propionyl}-N^ε18-[2-(2-[2-(2-[2-(2-((S)-3-[1-(19-Carboxy-nonadecanoyl)-piperidine-4-carboxyamino]-3-carboxypropionylamino)ethoxy)ethoxy]acetylamino)ethoxy]ethoxy)acetyl][Lys^18,Glu^22, Gln^34]GLP-1(9-37)-peptide”: the IC50 with human GLP-1 receptor [5] is less than 0.9 µM; with human GLP-1 receptor [4], less than 0.04 µM. The same substance came in with an EC50 of cAMP formation (AlphaScreen cAMP assay) with human GLP-1 receptor [1] of less than 0.0021 µM. In assay [3], the ratio [(IC50/nM) high HSA]/[(IC50/nM) low HSA] was more than 10.

For “N^9-{2-[2-(1H-Imidazol-4-yl)-ethylcarbamoyl]-2-methyl-propionyl}-N^ε26-[2-(2-{2-[2-(2-{2-[(S)-4-Carboxy-4-(17-carboxyheptadecanoylamino)butyrylamino]ethoxy}ethoxy)acetylamino]ethoxy}ethoxy)acetyl][His^31,Gln^34]GLP-1(9-37)-peptide”, the results for the half-maximal inhibitory concentration (IC50) in the assay with human GLP-1 receptor [5] and with human GLP-1 receptor [4] were less than 0.9 µM and less than 0.04 µM, respectively. The EC50 of cAMP formation (AlphaScreen cAMP assay) with human GLP-1 receptor [1] is less than 0.0021 µM. The ratio [(IC50/nM) high HSA]/[(IC50/nM) low HSA] in assay [3] was more than 10.

With “N^9-{2-[2-(1H-Imidazol-4-yl)-ethylcarbamoyl]-2-methyl-propionyl}-N^ε26-{2-[2-(2-{2-[2-(2-{(S)-4-Carboxy-4-[10-(4-carboxy-phenoxy)-decanoylamino]-butyrylamino}-ethoxy)-ethoxy]-acetylamino}-ethoxy)-ethoxy]-acetyl}, N^ε37-{2-[2-(2-{2-[2-(2-{(S)-4-Carboxy-4-[10-(4-carboxy-phenoxy)-decanoylamino]-butyrylamino}-ethoxy)-ethoxy]-acetylamino}-ethoxy)-ethoxy]-acetyl}[Arg^34,Lys^37]GLP-1(9-37)-peptide”, the half-maximal inhibitory concentration (IC50) with human GLP-1 receptor [5] was less than 0.9 µM; in the assay with human GLP-1 receptor [4], less than 0.04 µM. In the assay with human GLP-1 receptor [1], the EC50 of cAMP formation (AlphaScreen cAMP assay) was less than 0.0021 µM. The ratio [(IC50/nM) high HSA]/[(IC50/nM) low HSA] in assay [3] is more than 10.

Consider “N^9-{2-[2-(1H-Imidazol-4-yl)-ethylcarbamoyl]-2-methyl-propionyl}-N^ε26-{2-[2-(2-{2-[2-(2-{(S)-4-[4-(4-tert-Butyl-phenyl)-butyrylamino]-4-carboxy-butyrylamino}-ethoxy)-ethoxy]-acetylamino}-ethoxy)-ethoxy]-acetyl}, N^ε37-{2-[2-(2-{2-[2-(2-{(S)-4-[4-(4-tert-Butyl-phenyl)-butyrylamino]-4-carboxy-butyrylamino}-ethoxy)-ethoxy]-acetylamino}-ethoxy)-ethoxy]-acetyl}[Arg^34, Lys^37]GLP-1(9-37)-peptide”, for which the IC50 was less than 0.9 µM with human GLP-1 receptor [5] and less than 0.04 µM with human GLP-1 receptor [4]. Besides, the EC50 of cAMP formation (AlphaScreen cAMP assay) with human GLP-1 receptor [1] was less than 0.0021 µM. The ratio [(IC50/nM) high HSA]/[(IC50/nM) low HSA] in assay [3] is more than 10.

As to “N^9-{2-[2-(1H-Imidazol-4-yl)-ethylcarbamoyl]-2-methyl-propionyl}-N^ε36-(2-{2-[2-(17-carboxyheptadecanoylamino)ethoxy]ethoxy}acetyl) (Glu^30,Lys^36)GLP-1(9-37) Glu^38-peptide amide”, the figures for the IC50 with human GLP-1 receptor [5] and with human GLP-1 receptor [4] were less than 0.9 µM and less than 0.04 µM, respectively. For the same substance, the EC50 of cAMP formation (AlphaScreen cAMP assay) with human GLP-1 receptor [1] was less than 0.0021 µM. Moreover, in assay [3], the ratio [(IC50/nM) high HSA]/[(IC50/nM) low HSA] was more than 10.

Turning to “N^9-{2-[2-(1H-Imidazol-4-yl)-ethylcarbamoyl]-2-methyl-propionyl}N^ε26-[2-(2-{2-[2-(2-{2-[(S)-4-Carboxy-4-(17-carboxyheptadecanoylamino)butyrylamino]ethoxy}ethoxy)acetylamino]ethoxy}ethoxy)acetyl][Arg^34]GLP-1(9-37)-peptide”, the IC50 with human GLP-1 receptor [5] was less than 0.9 µM; with human GLP-1 receptor [4] it was less than 0.04 µM. The substance also showed an EC50 of cAMP formation (AlphaScreen cAMP assay) with human GLP-1 receptor [1] of less than 0.0021 µM. Moreover, the ratio [(IC50/nM) high HSA]/[(IC50/nM) low HSA] in assay [3] was more than 10.

“N^9-{2-[2-(1H-Imidazol-4-yl)-ethylcarbamoyl]-2-methyl-propionyl}N^ε26-{2-[2-(2-{2-[2-(2-{(S)-4-Carboxy-4-[10-(4-carboxy-phenoxy)-decanoylamino]-butyrylamino}-ethoxy)-ethoxy]-acetylamino}-ethoxy)-ethoxy]-acetyl}, N^ε37-{2-[2-(2-{2-[2-(2-{(S)-4-Carboxy-4-[10-(4-carboxy-phenoxy)-decanoylamino]-butyrylamino}-ethoxy)-ethoxy]-acetylamino}-ethoxy)-ethoxy]-acetyl}[Arg^34,Lys^37]GLP-1(9-37)Glu^38-peptide”: the half-maximal inhibitory concentration (IC50) in the assay with human GLP-1 receptor [5] is less than 0.9 µM; with human GLP-1 receptor [4] it was less than 0.04 µM. For the same substance, the EC50 of cAMP formation (AlphaScreen cAMP assay) in the assay with human GLP-1 receptor [1] was less than 0.0021 µM. In assay [3], the ratio [(IC50/nM) high HSA]/[(IC50/nM) low HSA] was more than 10.

In the case of “N^9-{2-[2-(1H-Imidazol-4-yl)-propylcarbamoyl]-2-methyl-propionyl}-N^ε36-(2-{2-[2-(17-carboxyheptadecanoylamino)ethoxy]ethoxy}acetyl) [Glu^30,Lys^36]GLP-1(9-37)Glu^38-peptide amide”, the IC50 with human GLP-1 receptor [5] is less than 0.9 µM; with human GLP-1 receptor [4] it was less than 0.04 µM. Further, the EC50 of cAMP formation (AlphaScreen cAMP assay) with human GLP-1 receptor [1] is less than 0.0021 µM. Moreover, the ratio [(IC50/nM) high HSA]/[(IC50/nM) low HSA] in assay [3] was more than 10.

As to “N^9-{2-[2-(1H-Imidazol-4-yl)methylcarbamoyl]-2-methyl-propionyl}-N^ε36-(2-{2-[2-(17-carboxyheptadecanoylamino)ethoxy}ethoxy]acetyl)[Glu^30,Lys^36]GLP-1(9-37) Glu^38-peptide amide”, the results for the IC50 in the assay with human GLP-1 receptor [5] and with human GLP-1 receptor [4] were less than 0.9 µM and less than 0.04 µM, respectively. In the assay with human GLP-1 receptor [1], this substance returned an EC50 of cAMP formation (AlphaScreen cAMP assay) of less than 0.0021 µM. Further, the ratio [(IC50/nM) high HSA]/[(IC50/nM) low HSA] in assay [3] was more than 10.
